Here are results for two molecules from patent publication US20220306986A1, “NON-INVASIVE METHODS FOR SELECTIVELY ENRICHING PLURIPOTENT CELLS” (MEMORIAL SLOAN-KETTERING CANCER CENTER, priority 2019, published 2022).

What all share (format): cell-based, mouse
One test deals with ESCs. Briefly: Colony formation assay (alkaline phosphatase staining) after pulse treatment. As to conditions: during transient glutamine withdrawal and in the presence of exogenous glutamine; FIG. 7H, 7I. As to the method: For transient glutamine withdrawal (“pulse”) experiments, cells were initially plated in standard S/L medium as described above. The following day, cells were washed with PBS and then changed to experimental medium containing a 1:1 mix of glutamine-free DMEM and glutamine-free Neurobasal medium including 10% dialyzed FBS, 2-mercaptoethanol, LIF, and containing (“Ctrl”) or lacking (“Pulse”) L-glutamine as indicated. 24 hours later, cells were washed with PBS and then returned to glutamine-replete medium (“Recover”). 24 hours later, cells were subjected to either image analysis, flow cytometry, or plated for colony formation assays as indicated. For glutamine pulse experiments in human ESCs, cells were initially plated at a density of 300,000 cells/well in a tissue-culture treated polystyrene 12-well plate coated with vitronectin (Thermo Fisher Scientific, A14700) in E8 medium (Thermo Fisher Scientific, A1517001) containing 10 uM ROCK inhibitor Y-27632 (Selleck Chemicals S1049). 24 hrs after plating, medium was changed to modified E8 medium containing: DMEM high glucose without glutamine (Thermo Fisher 11960044), 10.7 mg/L Transferrin (Sigma T0665), 64 mg/L L-Ascorbic Acid (Sigma A890), 14 ug/L Sodium Selenite (Sigma S5261), 543 mg/L Sodium Bicarbonate (Research Products International 144558), 19.4 mg/L insulin (Sigma 19278), 100 ug/L bFGF (EMD Millipore GF003AF), 2 ug/L TGFβ1 (Peprotech 10021), and 2 mM L-glutamine. After 24 hrs of culture in modified E8 medium, medium was changed to modified E8 medium containing 2 mM or 0 mM L-glutamine for 24 hrs. All cells were then changed to modified E8 medium containing 2 mM L-glutamine and cultured for 24 hrs before harvest for analysis. […] For ESC colony formation assays, colonies were scored manually in a blinded fashion. For reprogramming experiments, alkaline-phosphatase colonies were scored automatically using ImageJ (NIH). Briefly, images of each well were binarized using the Default function and particles greater than 8 pixels with a circularity of 0.7-1.0 were counted.

The subject of the next test is JAK/STAT3 signaling. Briefly: Immunoblot of phospho-STAT3 and total STAT3. The conditions noted are these: ESCs expressing chimeric GCSF-responsive LIF receptor; FIG. 5A. As to the method: Protein lysates were extracted in 1× radioimmunoprecipitation assay buffer (Cell Signaling Technology), separated by SDS—polyacrylamide gel electrophoresis and transferred to nitrocellulose membranes (Bio-Rad). Membranes were blocked in 3% milk in Tris-buffered saline with 0.1% Tween20 (TBST) and incubated at 4° C. with primary antibodies overnight. After TBST washes the next day, membranes were incubated with horseradish peroxidase-conjugated secondary antibodies for 2 h, incubated with enhanced chemiluminescence (Thermo Fisher Scientific) and imaged with an SRX-101A X-ray Film Processor (Konica Minolta). The antibodies used (at 1:1,000 unless otherwise stated) were: Nanog (catalogue no. AF2729; R&D Systems); KLF4 (catalogue no. ab129473; Abcam), phospho-Stat3 (catalogue no. 9138; Cell Signaling Technology); Stat3 (124146, catalogue no. 9139; Cell Signaling Technology), and α-Tubulin (1:10,000, catalogue no. 79026; Sigma-Aldrich).

Test [1] deals with Stat3 target gene Tfcp2l1 and key transcription factors associated with naïve pluripotency. Put plainly: qRT-PCR of STAT3-target genes and other key pluripotency genes. The conditions noted are these: ESCs expressing GCSF-activated LIF receptor; FIG. 5B. The protocol: RNA was isolated from six-well plates using Trizol (Invitrogen) according to manufacturer instructions. 200 ng RNA was used for cDNA synthesis using iScript (BioRad). Quantitative real-time PCR analysis was performed in technical triplicate using QuantStudio 7 Flex (Applied Biosystems) with Power SYBR Green (Life Technologies). All data were generated using cDNA from triplicate wells for each condition. Actin was used as an endogenous control for all experiments. The following primers were used: […]
For orientation: Real-time PCR tracks product formation cycle by cycle.

In test [2] the test system is ESCs expressing the G-CSF-activated LIF receptor transgene. Put plainly: GC-MS isotope tracing of [U-13C]glucose or [U-13C]glutamine. The protocol:
Steady state TCA cycle metabolite measurements. Cells were seeded in standard S/L medium in 6-well plates. 24 hours later, cells were washed with PBS and changed into experimental medium containing a 1:1 mix of glutamine-free DMEM and glutamine-free Neurobasal medium including 10% dialyzed FBS, 2-mercaptoethanol, LIF, and 2 mM L-glutamine. The next day, cells were washed with PBS and subjected to the same experimental medium either with or without 2 mM glutamine. 8 hours later, metabolites were extracted with 1 mL ice-cold 80% methanol containing 2 μM deuterated 2-hydroxyglutarate (D-2-hydroxyglutaric-2,3,3,4,4-d5 acid, d5-2HG) as an internal standard. After overnight incubation at −80° C., lysates were harvested and centrifuged at 21,000 g for 20 minutes to remove protein. Extracts were dried in an evaporator (Genevac EZ-2 Elite) and resuspended by incubating at 30° C. for 2 hours in 50 μL of 40 mg/mL methoxyamine hydrochloride in pyridine. Metabolites were further derivatized by addition of 80 μL of MSTFA+1% TCMS (Thermo Scientific) and 70 μl ethyl acetate (Sigma) and then incubated at 37° C. for 30 minutes. Samples were analyzed using an Agilent 7890A GC coupled to Agilent 5977C mass selective detector. The GC was operated in splitless mode with constant helium gas flow at 1 mL/min. 1 μl of derivatized metabolites was injected onto an HP-5MS column and the GC oven temperature ramped from 60° C. to 290° C. over 25 minutes. Peaks representing compounds of interest were extracted and integrated using MassHunter software (Agilent Technologies) and then normalized to both the internal standard (d5-2HG) peak area and protein content of duplicate samples as determined by BCA protein assay (Thermo Scientific). Ions used for quantification of metabolite levels are as follows: d5-2HG m/z 354; αKG, m/z 304; aspartate, m/z 334; citrate, m/z 465; fumarate, m/z 245; glutamate, m/z 363; malate, m/z 335 and succinate, m/z 247. All peaks were manually inspected and verified relative to known spectra for each metabolite.
Isotope tracing studies. For isotope tracing studies, cells were seeded in standard S/L medium in 6-well plates. 24 hours later, cells were washed with PBS and changed into experimental medium containing a 1:1 mix of glutamine-free DMEM and glutamine-free Neurobasal medium including 10% dialyzed FBS, 2-mercaptoethanol, LIF, and 2 mM L-glutamine. […] Enrichment of ^13C was assessed by quantifying the abundance of the following ions: aKG, m/z 304-318; aspartate, m/z 334-346; citrate, m/z 465-482; fumarate, m/z 245-254; glutamate, m/z 363-377 and malate, m/z 335-347. […]

With `CCOC(=O)CCNc1cc(N2CCc3ccccc3CC2)nc(-c2ccccn2)n1` [GSK-J4], in the test on ESCs, the “ESC self-renewal (Nanog-GFP, colony formation)” value was “impaired ESC self-renewal”.

B1: GCSF: granulocyte colony-stimulating factor, activates the chimeric LIF receptor transgene (protein, UniProt P09919 31-207, looked up)
Granulocyte …: TPLGPASSLPQSFLLKCLEQVRKIQGDGAALQEKLVSECATYKLCHPEELVLLGHSLGIPWAPLSSCPSQALQLAGCLSQLHSGLFLYQGLLQALEGISPELGPTLDTLQLDVADFATTIWQQMEELGMAPALQPTQGAMPAFASAFQRRAGGVLVASHLQSFLEVSYRVLRHLAQP
On to B1, for which the “JAK/STAT3 signaling (phospho-STAT3)” value with JAK/STAT3 signaling is “elevated and sustained JAK/STAT3 signaling”. The “expression of Tfcp2l1 and naïve pluripotency transcription factors” value in test [1] is “enhancing expression”. Moreover, the “intracellular pools of glutamate when deprived of exogenous glutamine” value in test [2] ([U-13C]glucose, 4 h glutamine withdrawal, FIG. 5C) is “able to use glucose and other anaplerotic substrates to maintain intracellular pools of glutamate”. In test [2] ([U-13C]glucose, FIG. 1B), the “fraction of TCA cycle metabolites derived from oxidative decarboxylation of glucose-derived pyruvate (m+2 isotopologues)” value is “increased”. In addition, in test [2] ([U-13C]glutamine, FIG. 1D), the “fraction of metabolites derived from glutamine catabolism” value is “decreased”. In addition, in test [2] ([U-13C]glutamine, control ESCs more than 80%, FIG. 1D), the “fraction of glutamate derived from glutamine” value is 60%.
